In publication PMC9601868:

Legend:
[1] = biological target: ZFP932 KRAB domain (5–76), AviTagged, monobiotinylated (murine); experiment: SPR; Biacore X100, Sensor Chip CAP; monobiotinylated KRAB domain immobilised (~100 RU); 1 μM Trim28 RBCC injected 60 s, 600 s wash; 10 mM TRIS/HCl pH 8.0, 300 mM NaCl, 0.1 mM TCEP, 0.005% tween 20; kinetic analysis, two-state reaction model
[2] = biological target: ZFP932 KRAB domain (5–76), AviTagged, monobiotinylated (murine); experiment: SPR; Biacore X100, Sensor Chip CAP; monobiotinylated KRAB domain immobilised; concentration series of Trim28 RBCC, 60 s injections; 10 mM TRIS/HCl pH 8.0, 300 mM NaCl, 0.1 mM TCEP, 0.005% tween 20; equilibrium analysis

ZFP932 KRAB domain (5–76), AviTagged, monobiotinylated (murine), sequence (E9QAG8 5-76): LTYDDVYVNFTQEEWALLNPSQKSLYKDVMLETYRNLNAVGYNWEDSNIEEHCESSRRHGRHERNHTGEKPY

| Substance | Kd [1] [nM] | Kd [2] [nM] |
| --- | --- | --- |
| Trim28 RBCC (58–418) I300A (from UniProt Q62318 58-418) (domain or fragment) | 26.3 | – |
| Trim28 RBCC (58–418) K290A (from UniProt Q62318 58-418) (domain or fragment) | 37.3 | – |
| Trim28 RBCC (58–418) K290E (from UniProt Q62318 58-418) (domain or fragment) | 132 | – |
| Trim28 RBCC (58–418) K305A (from UniProt Q62318 58-418) (domain or fragment) | 31.1 | – |
| Trim28 RBCC (58–418) K305E (from UniProt Q62318 58-418) (domain or fragment) | – | 15900 |
| Trim28 RBCC (58–418) L301A (from UniProt Q62318 58-418) (domain or fragment) | – | 6500 |
| Trim28 RBCC (58–418) M304S (from UniProt Q62318 58-418) (domain or fragment) | 20.3 | – |
| Trim28 RBCC (58–418) R312E (from UniProt Q62318 58-418) (domain or fragment) | 212 | – |
| Trim28 RBCC (58–418) V294S (from UniProt Q62318 58-418) (domain or fragment) | 319 | – |
| Trim28 RBCC (58–418), wild type (from UniProt Q62318 58-418) (domain or fragment) | 14.6 | – |

Results, then the substance that gave them:

| Kd [1] [nM] | Kd [2] [nM] | Substance |
| --- | --- | --- |
| 35.8 | – | Trim28 RBCC (58–418) I300S (from UniProt Q62318 58-418) (domain or fragment) |
| 54.1 | – | Trim28 RBCC (58–418) K297A (from UniProt Q62318 58-418) (domain or fragment) |
| – | 30800 | Trim28 RBCC (58–418) L301S (from UniProt Q62318 58-418) (domain or fragment) |
| 324 | – | Trim28 RBCC (58–418) M298A (from UniProt Q62318 58-418) (domain or fragment) |
| 671 | – | Trim28 RBCC (58–418) M298S (from UniProt Q62318 58-418) (domain or fragment) |
| 24.2 | – | Trim28 RBCC (58–418) M304A (from UniProt Q62318 58-418) (domain or fragment) |
| 27.8 | – | Trim28 RBCC (58–418) R312A (from UniProt Q62318 58-418) (domain or fragment) |
| 113 | – | Trim28 RBCC (58–418) V294A (from UniProt Q62318 58-418) (domain or fragment) |
